Assay results from the supplement of paper PMC10567573.

B1: TEKT4 (parent)
chain: SEVEELNMSLTALREKLLEAEQSL

Variants of: B1
Experiment: protein stability index of a GFP-peptide fusion (GPS, HEK-293T) (PSI 1-6); higher = more stable
Conditions: c terminus: a fixed tail appended
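Further: lentivirally expressed fusions sorted by FACS into six bins by GFP to DsRed ratio, PSI derived from sequencing read proportions per bin multiplied by bin number.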

Variant | protein stability index
SEVEELNMSLTALREHLLEAEQSL [K16H] | 2.83
SEVEELNMSLTALREGLLEAEQSL [K16G] | 3.58
SEVEELNMSLTALRELLLEAEQSL [K16L] | 2.85
SEVEELNMSLTALREMLLEAEQSL [K16M] | 2.26
SEVEELNMSLTALREVLLEAEQSL [K16V] | 3.11
SEVEELNMSLTALREILLEAEQSL [K16I] | 2.92
SEVEELNMSLTALRERLLEAEQSL [K16R] | 3.06
SEVEELNMSLTALRESLLEAEQSL [K16S] | 3.74
SEVEELNMSLTALRENLLEAEQSL [K16N] | 1.72
SEVEELNMSLTALREDLLEAEQSL [K16D] | 4.25
SEVEELNMSLTALREFLLEAEQSL [K16F] | 1.99
SEVEELNMSLTALREELLEAEQSL [K16E] | 3.19
SEVEELNMSLTALREQLLEAEQSL [K16Q] | 2.83
SEVEELNMSLTALRECLLEAEQSL [K16C] | 3.24
SEVEELNMSLTALREPLLEAEQSL [K16P] | 5.38
SEVEELNMSLTALREYLLEAEQSL [K16Y] | 2.67
SEVEELNMSLTALREALLEAEQSL [K16A] | 3.42
SEVEELNMSLTALRETLLEAEQSL [K16T] | 2.83
SEVEELNMSLTALREWLLEAEQSL [K16W] | 3.27
SEVEELNMSLTALREKTLEAEQSL [L17T] | 5.16
SEVEELNMSLTALREKGLEAEQSL [L17G] | 5.38
SEVEELNMSLTALREKQLEAEQSL [L17Q] | 4.98
SEVEELNMSLTALREKRLEAEQSL [L17R] | 3.69
SEVEELNMSLTALREKCLEAEQSL [L17C] | 4.21

Variant | protein stability index
SEVEELNMSLTALREKPLEAEQSL [L17P] | 5.42
SEVEELNMSLTALREKDLEAEQSL [L17D] | 5.26
SEVEELNMSLTALREKILEAEQSL [L17I] | 4.28
SEVEELNMSLTALREKMLEAEQSL [L17M] | 2.51
SEVEELNMSLTALREKWLEAEQSL [L17W] | 3.41
SEVEELNMSLTALREKNLEAEQSL [L17N] | 4.89
SEVEELNMSLTALREKELEAEQSL [L17E] | 5.46
SEVEELNMSLTALREKALEAEQSL [L17A] | 5.53
SEVEELNMSLTALREKHLEAEQSL [L17H] | 5.01
SEVEELNMSLTALREKFLEAEQSL [L17F] | 3.69
SEVEELNMSLTALREKVLEAEQSL [L17V] | 4.45
SEVEELNMSLTALREKKLEAEQSL [L17K] | 5.36
SEVEELNMSLTALREKYLEAEQSL [L17Y] | 4.05
SEVEELNMSLTALREKSLEAEQSL [L17S] | 4.9
SEVEELNMSLTALREKLLEDEQSL [A20D] | 4.72
SEVEELNMSLTALREKLLEEEQSL [A20E] | 5.04
SEVEELNMSLTALREKLLECEQSL [A20C] | 4
SEVEELNMSLTALREKLLEFEQSL [A20F] | 3.79
SEVEELNMSLTALRNKLLEAEQSL [E15N] | 2.54
SEVEELNMSLTALRVKLLEAEQSL [E15V] | 2.3
SEVEELNMSLTALRFKLLEAEQSL [E15F] | 2.27
SEVEELNMSLTALRTKLLEAEQSL [E15T] | 2.44
SEVEELNMSLTALRYKLLEAEQSL [E15Y] | 2.15
SEVEELNMSLTALRRKLLEAEQSL [E15R] | 3.11

Variant | protein stability index
SEVEELNMSLTALRLKLLEAEQSL [E15L] | 2.1
SEVEELNMSLTALRIKLLEAEQSL [E15I] | 2.62
SEVEELNMSLTALRMKLLEAEQSL [E15M] | 2.18
SEVEELNMSLTALRWKLLEAEQSL [E15W] | 1.59
SEVEELNMSLTALRKKLLEAEQSL [E15K] | 3.38
SEVEELNMSLTALRPKLLEAEQSL [E15P] | 3.76
SEVEELNMSLTALRQKLLEAEQSL [E15Q] | 2.52
SEVEELNMSLTALRAKLLEAEQSL [E15A] | 2.2
SEVEELNMSLTALRCKLLEAEQSL [E15C] | 2.24
SEVEELNMSLTALRDKLLEAEQSL [E15D] | 2.97
SEVEELNMSLTALRGKLLEAEQSL [E15G] | 3.04
SEVEELNMSLTALRHKLLEAEQSL [E15H] | 2.94
SEVEELNMSLTALRSKLLEAEQSL [E15S] | 2.27
SEVEELNMSLIALREKLLEAEQSL [T11I] | 2.35
SEVEELNMSLFALREKLLEAEQSL [T11F] | 1.76
SEVEELNMSLSALREKLLEAEQSL [T11S] | 2.92
SEVEELNMSLRALREKLLEAEQSL [T11R] | 3.1
SEVEELNMSLQALREKLLEAEQSL [T11Q] | 3.65
SEVEELNMSLYALREKLLEAEQSL [T11Y] | 1.81
SEVEELNMSLCALREKLLEAEQSL [T11C] | 2.82
SEVEELNMSLDALREKLLEAEQSL [T11D] | 4.13
SEVEELNMSLKALREKLLEAEQSL [T11K] | 3.15
SEVEELNMSLEALREKLLEAEQSL [T11E] | 4.1
SEVEELNMSLLALREKLLEAEQSL [T11L] | 2.8

Variant | protein stability index
SEVEELNMSLGALREKLLEAEQSL [T11G] | 3.02
SEVEELNMSLAALREKLLEAEQSL [T11A] | 3.49
SEVEELNMSLVALREKLLEAEQSL [T11V] | 2.36
SEVEELNMSLNALREKLLEAEQSL [T11N] | 3.02
SEVEELNMSLWALREKLLEAEQSL [T11W] | 2.09
SEVEELNMSLMALREKLLEAEQSL [T11M] | 2.51
SEVEELNMSLPALREKLLEAEQSL [T11P] | 3.31
SEVEELNMSLHALREKLLEAEQSL [T11H] | 2.5
SEVEELNMSMTALREKLLEAEQSL [L10M] | 2.64
SEVEELNMSGTALREKLLEAEQSL [L10G] | 3.74
SEVEELNMSYTALREKLLEAEQSL [L10Y] | 2.93
SEVEELNMSFTALREKLLEAEQSL [L10F] | 3.23
SEVEELNMSSTALREKLLEAEQSL [L10S] | 3.64
SEVEELNMSRTALREKLLEAEQSL [L10R] | 3.97
SEVEELNMSTTALREKLLEAEQSL [L10T] | 3.29
SEVEELNMSQTALREKLLEAEQSL [L10Q] | 4.14
SEVEELNMSITALREKLLEAEQSL [L10I] | 1.9
SEVEELNMSVTALREKLLEAEQSL [L10V] | 2.25
SEVEELNMSHTALREKLLEAEQSL [L10H] | 3.26
SEVEELNMSKTALREKLLEAEQSL [L10K] | 3.73
SEVEELNMSWTALREKLLEAEQSL [L10W] | 2.68
SEVEELNMSNTALREKLLEAEQSL [L10N] | 4.09
